Assay results as given in the nanobody polyreactivity screen of Harvey et al. (2022).

Assay: yeast display, Sf9 membrane polyspecificity reagent, FACS + sequencing; frameworks hold sequencing errors
Method in brief: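 Synthetic nanobody libraries on Saccharomyces cerevisiae BJ5465 were galactose-induced for 36–48 hours, stained 1 hour at 4 °C with 10% biotinylated, detergent-solubilized Sf9 membrane reagent and enriched on streptavidin microbeads. FACS then separated cells into low and high (top ~1%) gates by anti-HA (expression) and streptavidin (reagent binding) fluorescence. Genes were colony-PCR amplified, MiSeq 2 × 250 sequenced and CDR-length filtered. A clone's polyreactivity label is that of its gate of origin.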

Row | Sequence | polyreactivity (PSR sort gate)
1 | QVQLVESGGGLVQEGGSLRLSCAASGLTFFPYAMGWYRQAPGKERELVAAITTSDGTTYYADSVKGRFTISRDNAKNTVYLQMNSLKPEDTAVYYCAAVYSPRSVWWYDYWGQGTEVTVSS | low polyreactivity
2 | QVQLVESGGGLVQAGGSLRLSCAASGSTFIAYAMGWYRQAPGKERELVAAITKSGGRTYYADSVKGRFTISRDNAKNTVYLQMNSLKPEDTAVYYCAKLVPVYSHPYAYDYWGQGTQVTVSS | high polyreactivity
3 | QVQLVESGGGLVQAGGSLRLSCAASGIIFRPYAMGWYRQAPGKERELVASITLSGGSTYYADSVKGRFTISRDNAKNTVYLQMNSLKPEDTAVYYCNRYPRLRVVPSRYVKYDYWGQGTQVTVSS | low polyreactivity
4 | QVQLVESGGGLVQAGGSLRLSCAASGSIFRYYAMGWYRQAPGKERESVADITSSGGSTYYADSVKGRFTISRDNAKNTVYLQMNSLKPEDTAVSYCAREDNLRHQSDSRYDYWGQGTQVTVSS | low polyreactivity
5 | QVQLQESGGGLVQAGGSLRLSCAASGSIANLIAKGWSRQAQRKEREFVAAIGPGANTNYADSVKGRFTISRDNANNTVYRQMNSLKPEDTAVYYCAVDYYGEAVYHYWGQGTQVTVSS | high polyreactivity
6 | QVQLVESGGGLVQAGGSLRLSCAASGSIFPPYVMGWYRQAPGKERELVASITTSGGSTYYADSVKGRFTISRDNAKNPVYLQMNSLKPEDTAVYYCAARWYYGGKSAGPGGGYWGQGTQVTVSS | low polyreactivity
7 | QVQLVKSGGGLVQAGGSLRLSCAASGFTIYYYAMGWYRQAPGKEMELVASITSGGSTYYADSVKGRFTISRDNAKNTVYLQMNSLKPEDTAVYYCAKTRFHSKEGDYWGQGTQVTVSS | low polyreactivity
8 | QVQLVESGGGLVQAGGSLRLSCAASGITLRYYAMGWYRQAPGKERELVAAITYSGTNTRYADSVKGRFTISRDNAKNTVYFQMNSLKPEDTAVYYCAARNGFGSPQMGYWGQGTQVTVSS | high polyreactivity
9 | QVQLVESGGGLVQAGGSLRLSCAASGRISTTYSMGWYRPAPGKERELVAAITIGGGTNYADSVKGRFTISRDNAKNTVYLQMNSLKPEDTAVFYCNADRTASFAYDYWGQGTQVTVSS | low polyreactivity
10 | QVQLVESGGGLVQAGGSLRLSCAASGFTLVKYVMGWYRPAPGKERELVAAINRSGTSTYYADSVKGRFTISRDNAKNTVYLQMNSLKPEDTAVYYCAAERSRNFDWGQGTQVTVSS | high polyreactivity
11 | QVQLVESGGGLVKAGGSLRLSCAASGSIFLYYSMGWYRQAPGKERELVAAITGGGCTNYADSEKGRFTISRDHAKNNVYLLMNSLKPEDTSVYYWAADASGQFPYSYYNYDYDYWGQGTQVSVSS | low polyreactivity
12 | QVQLVESGGGLVQAGGSLRLSCAASGSIFYYYSMGWYRQAPGKERELVARITSGGTNYADSVKGRFTISRDNAKNTVYLQMNSLKPEDTAVYYCNADHSTWLYKRYDYWGQGTQVTVSS | low polyreactivity
13 | QVQLVESGGGLVQAGGSLRLSCAASGRIFYYYAMGWYRQAPGKERELVAAISQRGGRTYYADSVKGRFTISRDIAKNTVYLQMNSLIPEDTAVYYCNAYPVYGRYTHYGYGHWGQGTKVTVSS | high polyreactivity
14 | QVQLVESGGGLVQAGGSLRLSCAASGSTFSSYAMGWYRQAPGKERELVAAINWSGTRTYYADSVKGRFTISRDNAKNTVYLQMNSLKPEDTAVYYCAAPGFGETADYDDWGQGTQVTVSS | low polyreactivity
15 | QVQLVESGVGLVQAGGSLRLIWAASGRTFYRNVMGWYRQAPGKERELVAAISWSGGRTYYADSVKGRFTISRDNAKNTVYLQMNSLKPEDTAVYYCAARYRTLDGEVDYWGQGTQVTVSS | high polyreactivity
16 | QVQLVESGGGLVQAGGSLRLSCAASGSTFVYMGWYRQAPGKEREFVAAITWSGGSTYYADSVKGRFTISRDNAKNTVYLQMNSLKPEDTAVNYCNAVSVIPGWARYYSWGQGTQVSVSS | low polyreactivity
17 | QVQLVESGGGLVQAGGSLRLSCAASGSTFFIYAMGWYRQAPGKERELVAVIRNIDVRTYYADSVKGRFTISRDNAKNTVYLQMNSLKPEDTAVYYCAADELLDESVDMYYWGQGTQVTVSS | low polyreactivity
18 | QVQLVESGGGLVQAGGSLRLSCAASGSTFYLYTMGWYRQAPGKERELVAASSINGGITYYADSVKGRFTISRDNAKNTVYFQMYSLKPEDTAVYYCAKSSGQTDVGSFYYRLDYWGQGTQVTVSS | low polyreactivity
19 | QVHLVESGGGLVQEGGSLRISCAASGSSFSHYTMGWYIQAPGKERELVAAISYRGGSTYYADSLKGRFTISRDNAKNTVYFQSNSLKPEDTAVYYCAAVGYYSTVRRYDYWGQRTQVTVSS | low polyreactivity
20 | QVQLVESGGGLVQAGGSLRLSCAASGFIFDYYAMGWYRQAPGKERELVASISGDDGRTYYADSVTGRFTISRDNAKNTVYLQMNSLKPEDTAVYDCNAEWGVLNYDYWGQGTQVTVSS | low polyreactivity
21 | QVQIEDSGGGLVQAGGSLRLSCAASGSTLRGYAMGWYRHAPGKERELVAAISKNGGSTYYADSVKGRFTISRDKAKYTVYLQMNSLKPEDTAVYYCAAVGYYTKRRFGYWGQGTQVTVSS | high polyreactivity
22 | QVQLVESGGGLVQAGGSLRLSCAASGRNFWFNAMGWYRQAPGKVRELVAAISGGSTNYADSVKGRFTISRDNAKNHVYLQMNSLKPEDTAVYYCAARYLLRYNWGQGTQVTVSS | high polyreactivity

Row | Sequence | polyreactivity (PSR sort gate)
23 | QVQLEESGGGLVQAGGSLRLSCAASGRIFAYYAMGLYRQAPGKERELVAAITTNGGGTYYADSVKGRFTISRDNAKNTVYLQMNSLKPEDTAVYYCNAVKQRSSFYDYWGQGTQVTVSS | low polyreactivity
24 | QVQLVESGGGLVQAGGSLRLSCAASGRIFARYAMGWYRQAPGKERELVAAITVSGDNTYYADSVKGRFTISRDNAKNTVYLQMNSLKPEDTAVYYCAVRAVLLFGFFEYDYWGQGTQVTVSS | low polyreactivity
25 | QVQLVESGGGLVQAGGSLRLSCAASGLTFWYYDMGWYRQAPGKERELVAAISRCGGTTYYADSVKGRFTISRDNAKNSVYLQMNSLKPEDTAVYYCAAVSFGFWVTEYYYWGQGTQVNVSS | high polyreactivity
26 | QVQLVESGGGLVQAGGSLRLSCAASGSTFYTYDMGWYRQAPGKERELVAAISRRDGITYYADSVKGRFTISRDYATNTVYLQMNSLNPEDSAVYYCAAEDAYRYYDFDYWGQGTQVTVSS | low polyreactivity
27 | QVQLVESGGGLVQAGGSHRLSCAASGRTFPVYAMGWYRHAPGKERELVAAIRGRSVRTYYADSVKGRFTISRDNAQNSVYLQMNSLKPEDTAVYYCAAYYFNPGMDYWGQGTQVTVSS | high polyreactivity
28 | QVQLVESGGGLVQAGGSLRLSCAASGSTFAQNAMGWYRQAPGKERELVAAISRRGGSTYYADSVKGRFTISRDNAKNTVYLQMNSLKPEDTAVYYCAADQPVRQHHRDDYWGQGTQVTVSS | low polyreactivity
29 | QVQLVESGGGLVQAGGSLRLSCAASGSTFTVYAMGWYRQAPGKERELVAAIRDGSSTNYADSVKGRFTISRDNAKNTVYLQMNSLKPEDTAVYYCNAPYPPTGYGDDDYWGQGTQVTVSS | low polyreactivity
30 | QVQLVESGGGLVQAGRSLRLSCAASGSTFSVNAMGWYRQAPGKERELVAAIPSGGNTYADSVKGRFTISRDNAKNTVYLQMNSLKPEDTAVYYCAVDNRDLFFYPGGFDYWGQGTQVTVSS | low polyreactivity
31 | QVQLVESGGGLVQAGGILRLSCAASGRIYEIYAMGWYRQAPGKDRELVAAISWRGVSTYYADSVKGPFTISRDNAKNNVYLQMNSLKPEDTAVYYCNKDVDYFWYVEYDYWGQGTQVTVSS | low polyreactivity
32 | QVQLVESCGGLVQAGGSLRLTCAASGSTFTIYAMGWYRQAPGKERELVAVISSSGGSTYYADSVKGRFTISRDYAKNTVYLQMNSLKPEDTAVYYCAADTRYFGGYLTLYYWGQGTQVTVSS | low polyreactivity
33 | QVELVESGGGLVQAGGSLRLSCAASGSIFTVYAMGWYRQAPGKERELVAAISSSGGRTYYADSVKGRFTISRDNAKNTVYLQMNSLKPEDTAVYYCNTGPGQSFRYNYWGQGTQVTVSS | high polyreactivity
34 | QVQLVESGGGLVQAGGSLRLSWAASGSTFVHNAMGWYIQAPGKERELVAGISRTGGSTYYADSVKGRFTISRDNAKNTVYLQMNSLKPEDTAVYYCAVRYPRSWQFDYWGQGTQVNVSS | high polyreactivity
35 | QVQLVESGGGLVQAGGSLRLSCAASGRILNYYTMGWYRQAPGKERELVAAISGSDGNTYYADSVKGRFTISRDNAKNTVYLQKNSLKPEDTAVYYCSADLYDEWGQGTQVTVSS | low polyreactivity
36 | QVQLVESGGGLVQAGGSLRLSCAASGRIFPLYAMGWYRQAPGKERELVAAITSSGGSTYYADSVKGRFTISRDNAKNTVYLQMNSLKPEDTAVYYCAADYSVYWLDYGYWGQGTQVTVSS | low polyreactivity
37 | QVQLVESGGGLVQAGGSLRLSCAASGRIFSYYDMGWYRQAPGKERELVAVISSRGGSTFYADSVKGRFTISRDNAKNTVYLLMNSLKAEDTAVYDCASRSLYVGYDYWGQCTQVTVSS | high polyreactivity
38 | QVQLQESGGGLEQAGGSLRLSCAESGIIFDNPNMGWYRQAPGKERELVATINSGATTNYADSVKGRFTISRDNAKNTVYLQMNSLIPEDTAVYYCSVDLSPTYFYVWGQGTQVTVSS | high polyreactivity
39 | QVQLVESGGGLVQAGGSLRLSCAASGRIFGGYAMGWYRQAPGKERELVAGIRSGGSTYYADSVKGRFTISRDIAKNTVYLQINSLKPEDTAVYYCNARLYFWNRYTYSQNNYWGQGTQVTVSS | high polyreactivity
40 | QVQLVESGGGLVQAGGSLRLSCAASGRIFTIYAMGWYRQAPGKERELVAAISGGGGITNYADSVKGRFTISRDNAKNTVYLQMNSLKPEDTAVYYCAATPRAPRTISLYNYWGQGTQVTVSS | high polyreactivity
41 | QVQLVESGGGLVQAGGSLRLSCAASGNTFRYYAMGWYRQAPGKERELVAAINRSGGRTYYADSVKGRFTISRDNAKNTVYLQMNSLKPEDTAVYYCARSIRYGRGVYKGGYWGQGTQVTVSS | high polyreactivity
42 | QVQLVESGGGLVQAGGSLRLSCAASGRIFGAYALGWYRQAPGKERELVAAINSGGSTFYAHSVKGRFTISRDNAKNTVYLQLNSLKPDDTAVYYCAKRSYDYRRYYWGQGTQVTVSS | high polyreactivity
43 | QVQLVESGGGLVQAGGSLRLSCAASASTFLSYAMGWYRQAPGKERELVAAITSRGGSTYYADSVKGRFTISRDIAKNTVYLQMNSLKPEDTAVYYCATRLGYGDSKVRRPYSRFYYWGQGTQVTVSS | high polyreactivity
